This passage reports plasma drug levels results from patent publication US6444641.

This assay addresses serum albumin (UniProt P08835). Put plainly: cell-based or functional assay.
Chain of UniProt P08835 (P08835 25-607 limits assumed): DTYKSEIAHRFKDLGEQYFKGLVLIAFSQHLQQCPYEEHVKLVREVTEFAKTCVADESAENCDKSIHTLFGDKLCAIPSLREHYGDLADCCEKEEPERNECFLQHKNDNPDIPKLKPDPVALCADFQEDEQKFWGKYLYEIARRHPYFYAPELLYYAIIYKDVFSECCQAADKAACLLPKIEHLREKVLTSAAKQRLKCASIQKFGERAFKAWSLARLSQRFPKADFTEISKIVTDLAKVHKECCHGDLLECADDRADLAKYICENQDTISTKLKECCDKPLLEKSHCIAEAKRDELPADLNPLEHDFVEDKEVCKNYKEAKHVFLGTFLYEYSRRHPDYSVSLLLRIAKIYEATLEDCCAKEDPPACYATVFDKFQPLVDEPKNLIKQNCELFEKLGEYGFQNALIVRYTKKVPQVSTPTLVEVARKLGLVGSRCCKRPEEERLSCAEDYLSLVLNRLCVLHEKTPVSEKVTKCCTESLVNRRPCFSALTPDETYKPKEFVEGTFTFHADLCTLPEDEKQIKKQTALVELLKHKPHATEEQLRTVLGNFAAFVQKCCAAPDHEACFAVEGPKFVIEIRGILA

Consider “B29-N^ε-myristoyl human insulin (from UniProt P01308 90-110; P01308 25-54) (ligand)”, for which the plasma drug levels at 100 minutes after subcutaneous injection (6 nmol/kg) in pigs, by double antibody radioimmunoassay was found to be 18 fold.
